The experiment addresses T1, TNF-β (lymphotoxin) (UniProt P01374 35-205, limits assumed).
T1 sequence (looked up): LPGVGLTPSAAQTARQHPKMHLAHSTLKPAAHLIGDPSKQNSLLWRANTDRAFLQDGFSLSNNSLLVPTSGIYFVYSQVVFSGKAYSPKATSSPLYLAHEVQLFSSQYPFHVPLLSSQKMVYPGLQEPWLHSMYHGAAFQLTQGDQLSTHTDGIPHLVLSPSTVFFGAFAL
Nature of the experiment: preliminary competition binding tests; reference TNF-α.

B1: TNF-BP (TNF binding protein), natural, purified from dialyzed urine of uraemia patients (receptor)
chain: DSVCPQGKYIHPQNNSICCTKCHKGTYLYNDCPGPGQDTDCRECESGSFTASENHLRHCLSCSKCRKEMGQVEISSCTVDRDTVCGCRKNQYRHYWSENLFQCFNCSLCLNGTVHLSCQEKQNTVCTCHAGFFLRENECVSCSNCKKSLECTKLCLPQIEN
modifications: glycoprotein; Asn-25 glycosylated (numbering of the TNF-BP cDNA sequence, Leu-1 = first residue after the signal peptide)
notes: Soluble extracellular part of the human TNF receptor; The main form (about 80% of the protein) starts at Asp-12; also called natural TNF-BP
For the molecule B1, the “affinity for TNF-β relative to its affinity for TNF-α” value is roughly 0.02 fold.
